Bounds are passed on as bounds.

The target of series [1] is PdxB (Escherichia coli, UniProt P05459). Put plainly: coupled assay with SerC and PdxA, NADH formation at […] nm. It is filed as biochemical.
Substrate in series [2]: CC(=O)C(=O)O
As to the kind of experiment: purified protein. It is filed as biochemical, Escherichia coli. The conditions noted are these: 4PE 29 μM, TND buffer pH 8.0, room temperature.

Substrate in series [3]: O=C(O)CC(=O)C(=O)O
As to the kind of experiment: purified protein. Format: biochemical, Escherichia coli. To be noted: 4PE 29 μM, TND buffer pH 8.0, room temperature.

Substrate in series [4]: O=C(O)CCC(=O)C(=O)O
As to the kind of experiment: purified protein. It is filed as biochemical, Escherichia coli. To be noted: 4PE 29 μM, TND buffer pH 8.0, room temperature.

Substrate in series [5]: O=C(O)[C@H](O)[C@H](O)COP(=O)(O)O
Put plainly: purified protein. The conditions noted are these: αKG 2 mM, TND buffer pH 8.0, room temperature. It is filed as biochemical, Escherichia coli.

Series [6] deals with the molecule itself. As to the kind of experiment: SEC. Background: In gel filtration, larger molecules generally elute earlier.

The term IC50 denotes the concentration that inhibits the measured activity by half. A higher IC50 goes with a need for much substance. As for `O=C(O)CC[C@H](O)C(=O)O` [L-2-HGA], the IC50 in series [1] is over 2000 µM.

B1: PdxB (4-phospho-D-erythronate dehydrogenase) from E. coli (enzyme, UniProt P05459 1-378, looked up)
chain: MKILVDENMPYARDLFSRLGEVTAVPGRPIPVAQLADADALMVRSVTKVNESLLAGKPIKFVGTATAGTDHVDEAWLKQAGIGFSAAPGCNAIAVVEYVFSSLLMLAERDGFSLYDRTVGIVGVGNVGRRLQARLEALGIKTLLCDPPRADRGDEGDFRSLDELVQRADILTFHTPLFKDGPYKTLHLADEKLIRSLKPGAILINACRGAVVDNTALLTCLNEGQKLSVVLDVWEGEPELNVELLKKVDIGTSHIAGYTLEGKARGTTQVFEAYSKFIGHEQHVALDTLLPAPEFGRITLHGPLDQPTLKRLVHLVYDVRRDDAPLRKVAGIPGEFDKLRKNYLERREWSSLYVICDDASAASLLCKLGFNAVHHPAR
Usually Km stands for the concentration of substrate that gives half-maximal velocity. What is called kcat is the maximal rate divided by the concentration of active sites. Usually kcat/Km stands for the turnover number divided by the Michaelis constant. In general, stoichiometry N refers to the number of molecules, sites or subunits per partner or assembly. Consider B1, for which the Km in series [2] was 128 ± 20 µM; in series [3], 86 ± 19 µM; in series [4], 93 ± 19 µM; in series [5] it was 2.9 ± 1.3 µM. The figures for the kcat in series [2], in series [3] and in series [4] were 1.3 ± 0.14 s⁻¹, 1.1 ± 0.31 s⁻¹ and 1 ± 0.24 s⁻¹, respectively. In addition, the results for the catalytic efficiency (kcat/Km) in series [2], in series [3] and in series [4] were 9900 ± 160 M⁻¹ s⁻¹, 13000 ± 2100 M⁻¹ s⁻¹ and 11000 ± 2400 M⁻¹ s⁻¹, respectively. Further, in series [6], the “stoichiometry N” value worked out at 2.

Values taken from article PMC3295541 (Biochemistry, 2010).
